The record followed here is patent US20120263728A1.

For assay [1], the target named is human Nav1.7 channel (type IX voltage-gated sodium channel alpha subunit) (human) (UniProt Q15858). Kind of assay: cell-based or functional assay.
The target in assay [2] is recombinant rat Nav1.7 channels expressed in HEK cells (rat) (UniProt O08562). Put plainly: cell-based or functional assay.
Chain of UniProt O08562 (O08562 whole entry): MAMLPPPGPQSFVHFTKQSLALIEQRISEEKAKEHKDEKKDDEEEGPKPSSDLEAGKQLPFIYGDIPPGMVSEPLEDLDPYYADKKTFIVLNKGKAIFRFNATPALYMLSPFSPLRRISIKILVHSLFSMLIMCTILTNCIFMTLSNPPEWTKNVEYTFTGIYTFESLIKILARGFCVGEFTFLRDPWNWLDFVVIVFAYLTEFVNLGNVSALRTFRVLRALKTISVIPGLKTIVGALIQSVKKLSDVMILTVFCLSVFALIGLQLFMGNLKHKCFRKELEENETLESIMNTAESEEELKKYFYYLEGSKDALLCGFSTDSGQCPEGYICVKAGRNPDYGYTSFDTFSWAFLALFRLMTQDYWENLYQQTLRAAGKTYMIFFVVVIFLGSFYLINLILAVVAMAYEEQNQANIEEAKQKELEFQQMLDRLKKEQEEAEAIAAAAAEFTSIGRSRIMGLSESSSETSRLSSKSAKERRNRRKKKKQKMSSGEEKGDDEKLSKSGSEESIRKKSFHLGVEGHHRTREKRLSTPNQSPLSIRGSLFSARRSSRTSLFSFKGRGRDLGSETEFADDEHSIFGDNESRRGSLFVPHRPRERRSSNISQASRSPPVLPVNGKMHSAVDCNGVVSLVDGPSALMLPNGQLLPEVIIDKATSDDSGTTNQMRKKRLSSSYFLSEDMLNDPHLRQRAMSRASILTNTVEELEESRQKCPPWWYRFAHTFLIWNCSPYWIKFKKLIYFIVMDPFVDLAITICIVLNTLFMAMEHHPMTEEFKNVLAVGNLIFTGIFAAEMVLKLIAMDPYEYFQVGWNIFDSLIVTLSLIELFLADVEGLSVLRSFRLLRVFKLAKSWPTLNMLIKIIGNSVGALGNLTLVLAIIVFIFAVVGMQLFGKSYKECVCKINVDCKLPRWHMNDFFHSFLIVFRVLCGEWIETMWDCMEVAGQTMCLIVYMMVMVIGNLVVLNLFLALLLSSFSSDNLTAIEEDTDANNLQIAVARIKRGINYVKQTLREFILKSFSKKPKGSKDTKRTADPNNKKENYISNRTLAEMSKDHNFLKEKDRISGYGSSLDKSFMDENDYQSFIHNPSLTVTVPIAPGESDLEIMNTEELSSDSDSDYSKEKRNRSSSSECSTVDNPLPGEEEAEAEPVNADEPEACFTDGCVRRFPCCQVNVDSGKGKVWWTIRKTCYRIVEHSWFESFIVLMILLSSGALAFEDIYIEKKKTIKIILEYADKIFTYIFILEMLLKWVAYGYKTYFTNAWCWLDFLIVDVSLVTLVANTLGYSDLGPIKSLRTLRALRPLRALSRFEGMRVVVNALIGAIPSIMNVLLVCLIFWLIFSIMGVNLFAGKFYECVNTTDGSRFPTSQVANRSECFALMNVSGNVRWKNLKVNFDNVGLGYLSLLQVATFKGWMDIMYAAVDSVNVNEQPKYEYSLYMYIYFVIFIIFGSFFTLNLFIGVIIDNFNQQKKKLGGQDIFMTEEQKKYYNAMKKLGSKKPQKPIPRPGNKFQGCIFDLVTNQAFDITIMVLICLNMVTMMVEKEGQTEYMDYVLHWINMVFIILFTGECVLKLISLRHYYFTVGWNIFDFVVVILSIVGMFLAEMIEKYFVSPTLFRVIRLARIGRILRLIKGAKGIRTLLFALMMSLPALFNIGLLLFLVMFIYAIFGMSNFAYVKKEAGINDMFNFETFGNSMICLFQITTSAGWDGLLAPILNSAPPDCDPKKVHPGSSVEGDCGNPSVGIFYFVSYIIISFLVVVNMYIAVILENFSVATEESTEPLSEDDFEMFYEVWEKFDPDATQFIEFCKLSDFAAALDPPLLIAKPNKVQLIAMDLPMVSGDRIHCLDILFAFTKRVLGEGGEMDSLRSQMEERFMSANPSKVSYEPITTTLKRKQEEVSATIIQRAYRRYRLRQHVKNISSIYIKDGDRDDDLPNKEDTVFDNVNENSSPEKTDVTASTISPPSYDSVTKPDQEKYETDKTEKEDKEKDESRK

B1: CA167_00932 (antibody, from another filing, rabbit IgG1, V domains shown)
VH: QSLEESGGRLVTPGTPLTLTCTVSGFSLSRYWMSWVRQAPGKGLEWIGNIGGGSGSTLYAPWAKGRSTISKTSTTVDLKITSPTTEDTATYFCGRYVKNGGGYRLDLWGPGTLVTVS
VL: AAVLTQTPSSVSAAVGGTVTIKCQSSQSVYNNNEFSWYQQKPGQPPKLLIYDASKLASGVPSRFSGSGSGTQFTLTISGVQCDDVATYYCLGGYNDDTNRWAFGGGTEVVVE
In assay [1], B1 gave a Nav1.7 inhibition (%) at 25 µg/ml, automated patch clamp on HEK cells of 27%.

B2: CA167_01080 (antibody, from another filing, rabbit IgG1, V domains shown)
VH: QSLEESGGRLVTPETPLTLTCTASGIDLSKWPMTWVRQAPGKGLEWIGIIGRSGSTNYASWAKGRFTISKTSTTVDLKMTSPTTEDTATYFCARGGSYYDLWGQGTLVTVS
VL: AQVLTQTASPVSAAVGNTVTITCQSSQSVWKNNDLSWYQQKLGQPPKLLIYYASTLASGVSSRFKASGSGTQFTLTISDVQCDDAGTYYCVGSYDCSSADCNAFGGGTKVVVK
In the case of B2, the Nav1.7 inhibition (%) at 25 µg/ml, automated patch clamp on HEK cells in assay [1] is 46%. Also, in assay [2], the inhibition of Nav1.7 currents at 25 µg/ml, automated Patch Clamp was determined as 26%.

B3: CA167_00983 (antibody, from another filing, rabbit IgG1, V domains shown)
VH: QSVEESGGRLVTPGTPLTLTCTVSGFSLSNYAMSWVRQAPGKGLEWIGIIGKSGSTAYASWAKGRFTISRTSTTVDLEITSPTTEDTATYFCVRFVLLWGPGTLVTVS
VL: AQVLTQTASPVSAAVGGTVTINCQSSQSVYKNNDLAWYQQKPGQPPKLLIYYASTLASGVSSRFKGSGSGTEFTLTISDAQCDDAATYYCLGSYDCSSADCNAFGGGTKVVVK
In turn, B3 returned a Nav1.7 inhibition (%) at 25 µg/ml, automated patch clamp on HEK cells in assay [1] of 41%.
